Measured values taken from article PMC4454446.
Read-outs that look alike come from different tables or passages of the source.

Legend:
[1] = molecular target: chicken bestrophin-1 crystallization construct, amino acids 1-405 (Best1_(cryst)) (chicken (Gallus gallus)); test: crystal structure
[2] = molecular target: chicken bestrophin-1 crystallization construct, amino acids 1-405 (Best1_(cryst)) (chicken (Gallus gallus)); test: SEC
[3] = molecular target: chicken bestrophin-1 crystallization construct, amino acids 1-405 (Best1_(cryst)) (chicken (Gallus gallus)); test: SEC; remark: listed apart in the source

Row | stoichiometry N [1] | Kd [2] [nM] | Kd [3] [nM] | Molecule
1 | 5 |  |  | chicken bestrophin-1 crystallization construct, amino acids 1-405 (Best1_(cryst)) (domain or fragment)
2 |  | 15 | 350 | Fab fragment of mouse monoclonal antibody 10D10 (Fab, V domains shown) VH: QVQLQQSGPELVRPGASVKMSCKASGYTFTNYWMHWVKQRPGQALEWIGMIDPSKSETTLNQKFRGKATLNVDKSSNTAYMQLSSLTSEDSAVYYCAREVYYFDYWGQGTTLTVSS VL: DIQMTQSPASLSASVGETVTITCRASENIYSYLTWYQQKQGKSPQLLVYNAKTLTEGVPSRFSGSGSGTQFSLKINSLQPEDFGGYFCQHHYGTPPTFGGGTKLEVK
